This note sets out measurements from the RNAGym collection of RNA variant scans (doi:10.7554/elife.80360).

First the molecules themselves.
B1: Hairpin Ribozyme (parent)
chain: GUCCUCUUUCACGUGCGCGUGAAAGAGAGAAGUGAACCAGAGAAACACACGUUGUGGUAUAUUACCUGGUA

The variants in the data set derive from B1. In words: self-cleavage, relative activity (ratio to wild type); higher = more cleavage; co-transcriptional.
On to U2G C6U, for which the self-cleavage was found to be 0.303.

In the case of U2C C37G, the self-cleavage came to 0.0267.

As to U2C U7G, the self-cleavage is 0.105.

Take U2C U7C: the self-cleavage amounted to 0.246.

With G1U U67A, the self-cleavage amounted to 0.105.

For U2C A64U, the self-cleavage was 0.107.

In the case of U2C A64C, the self-cleavage amounted to 0.0771.

Turning to C3A A26G, the self-cleavage came out at 0.736.

Regarding C3A A26C, the self-cleavage is 0.402.

Regarding G1U U55G, the self-cleavage turned out to be 0.104.

In the case of C3A A71C, the self-cleavage amounted to 1.11.

Regarding C3A A71U, the self-cleavage came to 0.517.

On to C3G A44U, for which the self-cleavage was determined as 0.114.

With C3G C10A, the self-cleavage was 0.18.

On to C3A G54A, for which the self-cleavage was determined as 0.351.

With C3A G54C, the self-cleavage came out at 0.206.

On to U2C A71C, for which the self-cleavage is 0.444.

With G1U U70C, the self-cleavage stood at 0.142.

Regarding U2G U9G, the self-cleavage turned out to be 0.206.

On to U2G U9A, for which the self-cleavage came to 0.242.

Take U2C U67G: the self-cleavage is 0.0822.

As to U2G A28C, the self-cleavage was determined as 0.384.

Consider U2A U20C, for which the self-cleavage worked out at 0.336.

As to U2A U20A, the self-cleavage is 0.198.

Consider C3G A36C, for which the self-cleavage was determined as 0.165.

Turning to U2C G68A, the self-cleavage came to 0.0299.

Turning to U2C G68C, the self-cleavage worked out at 0.187.

Take U2A U52C: the self-cleavage turned out to be 0.169.

As for U2A U52A, the self-cleavage worked out at 0.285.

In the case of C3G A28U, the self-cleavage turned out to be 0.647.

With C3A A36C, the self-cleavage was determined as 0.497.

As for U2A U8C, the self-cleavage stood at 0.162.

U2A U8A: the self-cleavage was 0.279.

For the variant U2A U8G, the self-cleavage came out at 0.201.

With C3A U60C, the self-cleavage is 1.07.

With U2A A45C, the self-cleavage came to 0.154.

For the variant U2A A45G, the self-cleavage came out at 0.0349.

As for U2C C65U, the self-cleavage was found to be 0.162.

As for U2C C65G, the self-cleavage is 0.0439.

With U2C G57U, the self-cleavage was 0.131.

As for C3A G40A, the self-cleavage was 0.23.

U2A A49C: the self-cleavage was 0.149.

For the variant U2C A39G, the self-cleavage came to 0.0933.

Turning to U2C A39C, the self-cleavage came out at 0.0668.

Take C3A C4G: the self-cleavage is 0.359.

As to C3A C4U, the self-cleavage amounted to 0.42.

With C3A G69C, the self-cleavage turned out to be 0.342.

For the variant U2G U20C, the self-cleavage was 0.385.

As to U2G U20G, the self-cleavage stood at 0.186.

For U2G U20A, the self-cleavage was found to be 0.225.

As to C3G C16G, the self-cleavage was found to be 0.34.

As for U2A U55G, the self-cleavage is 0.109.

For the variant U2A A28G, the self-cleavage was found to be 0.434.

On to U2C U14A, for which the self-cleavage is 0.0424.

Consider U2A G25U, for which the self-cleavage amounted to 0.204.

Turning to U2G A43G, the self-cleavage was 0.21.

Regarding U2G A43U, the self-cleavage stood at 0.102.

Consider U2C C38U, for which the self-cleavage stood at 0.147.

With U2C C38A, the self-cleavage was found to be 0.0742.

On to C3A A39G, for which the self-cleavage was determined as 0.192.

Take C3A A39U: the self-cleavage was 0.252.

Take C3A A39C: the self-cleavage was 0.328.

Take C3A: the self-cleavage came out at 0.714.

As for C3G, the self-cleavage is 0.296.

Turning to C3A G17U, the self-cleavage worked out at 0.571.

Turning to U2C G54U, the self-cleavage turned out to be 0.193.

For U2C A41G, the self-cleavage came to 0.158.

Take U2A C18A: the self-cleavage stood at 0.23.

On to U2G U67C, for which the self-cleavage was 0.102.

Take U2A G32U: the self-cleavage worked out at 0.155.

For U2A A31C, the self-cleavage was determined as 0.13.

Take U2C C12U: the self-cleavage amounted to 0.226.

Turning to U2C C12A, the self-cleavage came out at 0.205.

As to U2C C12G, the self-cleavage turned out to be 0.0835.

Take C3A C12U: the self-cleavage turned out to be 0.59.

U2C C16G: the self-cleavage is 0.246.

Regarding C3G A26G, the self-cleavage came to 0.338.

As for U2A U58A, the self-cleavage was 0.164.

As to U2A C4U, the self-cleavage turned out to be 0.0895.

For the variant U2G A41U, the self-cleavage came to 0.71.

As to U2A U9A, the self-cleavage turned out to be 0.201.

As for C3G A39C, the self-cleavage was 0.202.

On to C3A A35U, for which the self-cleavage is 0.479.

Consider C3A A35G, for which the self-cleavage came to 0.897.

Consider U2G U60A, for which the self-cleavage turned out to be 0.402.

For U2G C38A, the self-cleavage stood at 0.143.

Take U2G C38G: the self-cleavage is 0.172.

As for U2A A23C, the self-cleavage came out at 0.262.

U2A G57C: the self-cleavage amounted to 0.0768.

U2A C66A: the self-cleavage was 0.124.

Regarding C3G C18A, the self-cleavage is 0.34.

Regarding C3A U33A, the self-cleavage was determined as 0.0769.

For the variant U2C A11C, the self-cleavage came out at 0.229.

Turning to U2G U58G, the self-cleavage was 0.255.

Regarding U2G U58A, the self-cleavage came out at 0.263.

In the case of U2A G34U, the self-cleavage came to 0.665.

As to C3A A41C, the self-cleavage came to 1.07.

As to C3A A41U, the self-cleavage stood at 1.25.

As to U2A C48A, the self-cleavage came to 0.159.

On to C3A U53G, for which the self-cleavage came to 0.613.

For the variant U2A A64U, the self-cleavage is 0.0942.

U2G A61G: the self-cleavage stood at 0.15.

For the variant U2G A61C, the self-cleavage is 0.109.

C3A C38A: the self-cleavage is 0.215.

In the case of C3G A22G, the self-cleavage came to 0.264.

For C3A U67A, the self-cleavage is 0.132.

Turning to C3A U67G, the self-cleavage is 0.199.

Turning to C3A G13C, the self-cleavage amounted to 0.51.

Turning to U2C A44U, the self-cleavage was found to be 0.201.

Take U2C U33A: the self-cleavage is 0.0916.

U2G A22U: the self-cleavage came out at 0.259.

For U2C G56A, the self-cleavage was 0.177.

With C3G A71U, the self-cleavage amounted to 0.148.

Regarding C3G A71C, the self-cleavage was 0.58.

Turning to C3A A47G, the self-cleavage worked out at 0.191.

As to U2A A11G, the self-cleavage is 0.344.

As for U2C U62A, the self-cleavage amounted to 0.0408.

With U2A G17U, the self-cleavage turned out to be 0.22.

Regarding C3A C48G, the self-cleavage was found to be 0.158.

In the case of C3A C48U, the self-cleavage was determined as 0.112.

On to C3A A30C, for which the self-cleavage worked out at 0.14.

With C3A A30G, the self-cleavage was 0.146.

On to U2C A47U, for which the self-cleavage was found to be 0.203.

In the case of U2C A47G, the self-cleavage was determined as 0.

C3A A49C: the self-cleavage is 0.164.

As to C3G A47C, the self-cleavage came out at 0.0701.

With U2G G15A, the self-cleavage came to 0.55.

In the case of C3G A61C, the self-cleavage was 0.168.

For C3A U14G, the self-cleavage came to 0.623.

Take C3A A45U: the self-cleavage amounted to 0.164.

For C3A A45G, the self-cleavage was found to be 0.197.

As for C3A A45C, the self-cleavage turned out to be 0.157.

On to C3G A45G, for which the self-cleavage was determined as 0.118.

On to C3G A45C, for which the self-cleavage came out at 0.0981.

In the case of C3A C6U, the self-cleavage is 0.471.

Consider C3G A64U, for which the self-cleavage stood at 0.134.

In the case of U2G U14A, the self-cleavage was found to be 0.216.

Turning to C3A A22C, the self-cleavage was 0.593.

In the case of C3A A59C, the self-cleavage is 0.121.

Regarding C3A A59G, the self-cleavage was determined as 0.0686.

With C3G A35G, the self-cleavage amounted to 0.291.

For C3G A35U, the self-cleavage turned out to be 0.202.

U2G A47C: the self-cleavage was found to be 0.358.

For U2G A47G, the self-cleavage was found to be 0.0815.

As to U2A A36U, the self-cleavage amounted to 0.144.

Consider U2A A36G, for which the self-cleavage was found to be 0.194.

As to U2G A59G, the self-cleavage amounted to 0.225.

Regarding U2C G19A, the self-cleavage stood at 0.149.

As for U2C G19C, the self-cleavage stood at 0.128.

For the variant C3G G17A, the self-cleavage came out at 0.388.

As to C3A A28C, the self-cleavage was 0.648.

C3A A28G: the self-cleavage came out at 0.453.

As for C3A G51U, the self-cleavage turned out to be 0.792.

On to C3G G15C, for which the self-cleavage came to 0.493.

For the variant U2G G17U, the self-cleavage turned out to be 0.327.

On to U2G G17A, for which the self-cleavage came to 0.529.

Turning to U2G C48A, the self-cleavage is 0.213.

With U2G C48G, the self-cleavage came out at 0.116.

Take C3A C50G: the self-cleavage came to 0.199.

In the case of C3G A41U, the self-cleavage turned out to be 0.527.

For C3G A41C, the self-cleavage was found to be 0.341.

As to U2G C65G, the self-cleavage was found to be 0.0852.

Take U2G U8C: the self-cleavage was found to be 0.255.

As for U2C A35C, the self-cleavage is 0.159.

U2A A43U: the self-cleavage is 0.0943.

Turning to C3A A31G, the self-cleavage is 0.425.

Consider U2G C66U, for which the self-cleavage was 0.163.
